PMC7665192, “A natriuretic peptide from Arabidopsis thaliana (AtPNP-A) can modulate catalase 2 activity” (Scientific Reports, 2020)
Positions of bridges follow the written chain, without caps; N, C: chain ends. No end group written: not given here.

Assays:
[1] = test system: CAT2 transcript; conditions: exogenous application; cited from earlier work
Excerpt: It is also conceivable that modulation of CAT2 activity by AtPNP-A may not only have implications for plant biotic stress tolerance but may also result in changes in responses to abiotic stress. Activity of CAT2 is required for decomposition of photorespiration-derived H2O2 preventing redox perturbation under ambient growth conditions[59] while CAT2 deficiency causes a defective photorespiration phenotype including suppressed growth[58],[59] and accumulation of H2O2 in leaves. During senescence suppression of CAT2 function, mediated by G-BOX BINDING FACTOR1 (GBF1)[76], decreases CAT2 activ ...

[2] = test system: rCAT2; assay: Enzymatic activity of rCAT2, Amplex Red catalase assay; format: biochemical, Arabidopsis thaliana; conditions: 100 nM, Amplex Red catalase assay kit; three independent experiments, P < 0.01
Method: (§1) Enzymatic activity of CAT isozymes and total CAT activities of protein extracted from WT and atpnp-a or cat2-2 mutant lines, when indicated sprayed with 1 nM pAtPNP-A or pScr 20 min before harvesting, were determined zymographically and spectrophotometrically, as described in[56]. Relative quantification of intensity of bands corresponding to different CAT isoforms was performed with ImageJ version 1.48 (https://imagej.nih.gov/ij/). Enzymatic activity of the rCAT2 in the presence of absence of 100 nM rAtPNP-A, pAtPNP-A or pScr were determined with the use of Amplex Red catalase assay kit (Invitrogen) according to the manufacturer’s instructions.
(§2) Figure 3 AtPNP-A directly interacts with CAT2 to modulate its enzymatic activity in vitro. (a) Zymogram depicting changes in the enzymatic activity of CAT isoforms extracted from wild type (WT) or cat2-2 knockout mutant seedlings in response to 1 nM pAtPNP-A or pScr. Densitometric semi-quantification of bands corresponding to CAT2, normalized to the loading control (dark-coloured band on zymogram) for WT samples treated with 1 nM pAtPNP-A or pScr (mean ± SD, Student’s t-test, n = 3, P < 0.05). […] (b) Total CAT activity in protein extracted from WT seedlings assayed with Amplex Red catalase assay kit in the presence of 1 nM pAtPNP-A, rAtPNP-A, or pScr. […] (c) Enzymatic activity of rCAT2 in the presence of 100 nM pAtPNP-A, rAtPNP-A, or pScr.

[3] = test system: rCAT2; assay: SPR of CAT2 and AtPNP-A recombinant proteins, CM5 chip, both configurations; format: binding, Arabidopsis thaliana; conditions: amine coupling, 20 °C
Method: N-terminally 6xHis-tagged AtPNP-A and CAT2 proteins were expressed in BL21 (DE3) One Shot E. coli cells (Life Technologies), purified by affinity chromatography with Ni–NTA beads (Qiagen) and HisTrap HP column (GE Healthcare Lifesciences) as described in[21]. The purity of preparations was verified on 12.5% SDS-PAGE, stained with Coomassie Brilliant Blue (Bio-Rad). Protein identities were confirmed in MS analysis, and protein concentration was determined according to the method of Bradford using BSA as a standard.
SPR experiments were performed at 20 °C on Biacore T100 instrument operated using Biacore T100 control software (version 2.0.2, GE Healthcare Lifesciences) using Series S CM5 or NTA sensor chips as described in[21]. Kinetic analyses were performed at the flow of 100 μL min^−1 with pAtPNP-A (at 3.78 μM and consecutive twofold dilutions; 11 injections included) employed as a ligand and bovine liver CAT (C-40; Sigma) used as an analyte and immobilized on the active surface of the Series S CM5 sensor chip with amine coupling kit, while the surface regeneration was done with solution of glycine, pH 2.0, and the final sensorgram was generated with Scrubber (BioLogic Software Pty Ltd).
Supplementary Figure S3. In vitro association of AtPNP-A and CAT2 recombinant proteins.
(a) Recombinant protein preparations used in SPR analyses. […]

[4] = test system: A. thaliana (Col-0) mesophyll cell protoplasts; assay: Mesophyll cell protoplast swelling (volume); format: cell-based, Arabidopsis thaliana; conditions: 100 nM peptide or 1 μg mL^−1 rAtPNP-A, 0.4 M mannitol, 20 min, room temperature, n = 50, P < 0.0001
Excerpt: Peptides containing amino acid sequence of the active region of AtPNP-A and corresponding scrambled peptides, having the same amino acid composition but in a randomized order (Fig. 1a), with or without C-terminal biotin tag, were synthesized by GenScript (Piscataway, USA) at the purity level > 95% verified with HPLC and their biological activity was verified as described previously.
Figure 1 Biologically active peptide containing the active region of AtPNP-A protein binds to CAT2. (a) Domain organization of AtPNP-A and the amino acid sequences of C-terminally biotinylated peptides used in affinity chromatography-based experiments—a peptide containing the active site of AtPNP-A (indicated as pAtPNP-A) or the corresponding scrambled peptide (indicated as pScr). Cysteine residues forming a disulfide bond, characteristic to natriuretic peptide (NP)-like molecules, are underlined. SP, signal peptide. (b) Assaying biological activity of the AtPNP-A peptide (pAtPNP-A) and purified recombinant protein (rAtPNP-A). […] In each treatment, 50 randomly selected protoplasts with diameter > 20 µm were included in quantitative analysis (scale bar = 20 µm). Protoplast volume was measured and the data obtained from an exemplar experiment are plotted. […]

[5] = test system: CAT; assay: Total CAT activity in protein extracted from WT seedlings; format: biochemical, Arabidopsis thaliana; conditions: 1 nM
Method: as §1, §2

[6] = test system: CAT2; assay: Bimolecular fluorescence complementation (BiFC); format: cell-based, Arabidopsis thaliana; conditions: chloroplasts of tobacco leaf protoplasts, NeYFP/CeYFP fusions, mean ± SEM, n = 30, P < 0.0001
Excerpt: The full-length A. thaliana AtPNP-A (At2g18660) coding region entry plasmid pENTRYAtPNP-A[46] and pCR8/GW-TOPOCAT2 were recombined separately with both pSITE-nEYFP-C1 [GenBank Accession Number GU734651] and pSITE-cEYFP-C1 [GenBank Accession Number GU734652] to create pNeYFP-AtPNP-A, pCeYFP-AtPNP-A, pNeYFP-CAT2 and pCeYFP-CAT2, respectively. Each plasmid has either the N-terminal (NeYFP) or C-terminal (CeYFP) fragment of eYFP followed by either AtPNP-A or CAT2 coding region driven by the 35S plant expression promoter. After sequence was confirmed each plasmid was transformed separately into Agrobacterium tumefaciens strain GV3101 (pMP90). Tobacco leaves were infiltrated as previously described in[50]. Briefly, A. tumefaciens strains grown in 2YT medium were harvested by centrifugation and resuspended in infiltration medium (10 mM MES pH 5.6, 10 mM MgCl2, 150 µM acetosyringone) to a final OD600 of 0.2. Equal volumes of infiltration media containing relevant BiFC strains were mixed and infiltrated into the underside of tobacco leaves using a needleless syringe. Leaves were harvested after 3 days to isolate protoplasts following[51] and then immediately imaged.
BiFC images were captured at the La Trobe University LIMS BioImaging Facility using a LSM 510 confocal laser scanning microscope (Zeiss), with a × 40/1.2 water immersion objective. The natural red autofluorescence of chlorophyll was used as a marker for chloroplasts. Excitation/emission wavelengths were 488/505–530 nm for YFP and 561/650 nm long pass for red fluorescence. At least three images containing one or more protoplasts were taken for each of the plasmid construct combinations. Each image captured three separate filter scans, including YFP, red fluorescence and bright field. Post-processing of images was performed with ImageJ version 1.48 software (https://imagej.nih.gov/ij/). For each image the contrast for each panel was set at automatic contrast. A merged image was generated for reference with a 10 µm scale bar. The red fluorescence only panel was used to encircle ten chloroplasts as region of interest (ROI), then the YFP fluorescence (BiFC) calculated for each ROI was divided by the red fluorescence calculated for the same ROI. All BiFC/red fluorescence points were plotted using GraphPadPrism7 (GraphPadSoftware). Mean and standard error were calculated for each BiFC combination. All statistical analyses were performed using GraphPadPrism7.
Figure 4 AtPNP-A interacts with CAT2 in vivo. […] Exemplar merged images of protoplasts isolated from a leaf infiltrated with different combinations of N- or C-terminally tagged CAT2 and AtPNP-A are shown. (g) BiFC/Red fluorescence chloroplast analysis with mean ± SEM in pink.

[7] = biological target: T1, bovine liver catalase (CAT) (bovine, UniProt P00432 1-527); assay: SPR; Biacore T100, 20 °C; bovine liver CAT immobilised by amine coupling on a CM5 chip; pAtPNP-A at 3.78 μM and consecutive twofold dilutions, 11 injections, flow 100 μL/min; regeneration with glycine pH 2.0; kinetic fit with mass transfer term; conditions: both partners purified
T1 construct: catalase from bovine liver, Sigma C-40; also called bovine CAT; CAT from bovine liver; source: bought: Sigma (C-40)
T1 sequence (looked up): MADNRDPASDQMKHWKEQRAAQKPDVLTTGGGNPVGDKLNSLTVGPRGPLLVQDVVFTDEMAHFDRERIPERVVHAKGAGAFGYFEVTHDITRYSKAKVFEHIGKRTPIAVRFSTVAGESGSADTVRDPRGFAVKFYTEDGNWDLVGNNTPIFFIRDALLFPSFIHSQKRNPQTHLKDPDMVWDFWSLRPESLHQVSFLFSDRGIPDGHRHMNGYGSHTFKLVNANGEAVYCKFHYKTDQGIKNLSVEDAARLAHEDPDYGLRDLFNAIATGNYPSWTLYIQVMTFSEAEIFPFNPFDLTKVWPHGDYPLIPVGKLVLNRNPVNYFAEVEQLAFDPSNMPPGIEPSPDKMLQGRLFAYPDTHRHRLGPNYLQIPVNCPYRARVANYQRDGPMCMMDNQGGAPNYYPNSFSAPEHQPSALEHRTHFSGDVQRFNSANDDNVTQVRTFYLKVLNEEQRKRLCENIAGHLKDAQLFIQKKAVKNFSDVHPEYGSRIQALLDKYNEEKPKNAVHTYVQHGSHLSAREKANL

Molecule: O=C(O)c1ccccc1O [SA]
- CAT2 transcript [1]: Increases in CAT2 transcript

B1: rAtPNP-A: N-terminally 6xHis-tagged AtPNP-A expressed in BL21 (DE3) One Shot E. coli cells (protein)
chain: AQGKAVYYDPPYTRSACYGTQRETLVVGVKNNLWQNGRACGRRYRVRCIGATYNFDRACTGRTVDVKVVDFCREPCNGDLNLSRDAFRVIANTDAGNIRVVYTPI
modifications: left off: His6, N-terminal, state not stated
notes: N-terminally 6xHis-tagged AtPNP-A expressed in BL21 (DE3) One Shot E. coli cells
- In vitro enzymatic activity of rCAT2 [2]: significantly enhanced
- SPR binding of recombinant AtPNP-A to CAT2 [3]: bind specifically to CAT2
- Protoplast swelling response (volume) [4]: comparable to that elicited by an equimolar amount of the recombinant AtPNP-A (rAtPNP-A)
- Total CAT activity of protein extracts ([5]; WT seedling protein, Amplex Red kit, mean ± SD, n = 3, P < 0.05): elevated total CAT activity
- H2O2 breakdown by WT seedling protein extract ([5]; total protein extracted from WT seedlings, n = 3): more rapid H2O2 breakdown

B2: NeYFP-fused AtPNP-A: N-terminal (NeYFP) fragment of eYFP followed by AtPNP-A coding region (protein)
chain: B1 chain
modifications: left off: NeYFP (N-terminal fragment of eYFP), N-terminal, kept
- BiFC / Red fluorescence signal, interaction with CAT2 [6]: Lower BiFC/fluorescence signal

B3: CeYFP-AtPNP-A: C-terminal (CeYFP) fragment of eYFP followed by AtPNP-A coding region (protein)
chain: B1 chain
modifications: left off: CeYFP (C-terminal fragment of eYFP), N-terminal, kept
- BiFC / Red fluorescence signal, interaction with CAT2 [6]: significantly higher
- BiFC / Red fluorescence signal, interaction with CAT2 ([6]; listed as CeYFP-tagged AtPNP-A): greatest BiFC / Red fluorescence signal

B4: synthetic peptide containing the active region of AtPNP-A (amino acids 33-66) (peptide)
peptide: PYTRSACYGTQRETLVVGVKNNLWQNGRACGRRY
modifications: disulfide 7-30 (inferred); also: synthesized with or without C-terminal biotin
notes: active region of Arabidopsis thaliana plant natriuretic peptide A (AtPNP-A), amino acids 33-66; also called pAtPNP-A; AtPNP-A peptide; source: synthetic peptide (GenScript, purity > 95%)
- koff [7]: 0.000941 s⁻¹
- kon [7]: 10900 M⁻¹ s⁻¹
